According to PMC5643311:

Experiments:
Experiment in all cases: co-immunoprecipitation, blot
Settings in all cases: reference: wild type, EGF; sites S303
[1] = target: RelA/p65 (UniProt Q04206)
[2] = target: RelA/p65 (UniProt Q04206); remark: listed apart in the source
[3] = target: RelA/p65 (UniProt Q04206); remark: listed apart in the source

binding against the reference [1]: weaker
binding against the reference [2]: weaker
binding against the reference [3]: weaker
Substance: MIIP (migration and invasion inhibitory protein) (from UniProt Q5JXC2) S303A, EGF
